Experimental data published in publication PMC12501005.

T1: AflR 15-57 (Aspergillus flavus, UniProt P41765 15-57)
T1 chain: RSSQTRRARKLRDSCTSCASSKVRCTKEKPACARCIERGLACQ

T2: AflR 28-57 (Aspergillus flavus, UniProt P41765 28-57)
T2 chain: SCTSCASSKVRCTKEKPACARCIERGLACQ

T3: AflR 15-69 (Aspergillus flavus, UniProt P41765 15-69)
T3 sequence: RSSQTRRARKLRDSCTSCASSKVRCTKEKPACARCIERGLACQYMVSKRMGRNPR

T4: AflR 26-79 (Aspergillus flavus, UniProt P41765 26-79)
T4 sequence: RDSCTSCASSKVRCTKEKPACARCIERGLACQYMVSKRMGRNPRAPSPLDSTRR

T5: AflR 8-98 (Aspergillus flavus, UniProt P41765 8-98)
T5 sequence: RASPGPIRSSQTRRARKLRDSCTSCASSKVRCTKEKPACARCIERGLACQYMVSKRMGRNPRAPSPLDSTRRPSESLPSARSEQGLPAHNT

T6: AflR-DBD (15-79) (Aspergillus flavus, UniProt P41765 15-79)
T6 sequence: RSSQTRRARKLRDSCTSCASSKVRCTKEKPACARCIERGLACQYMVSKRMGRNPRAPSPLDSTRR

B1: norA (dsDNA)
DNA 1: ACCGGGCTTTCGGAAAGCGATCAGCTTGT
DNA 2: ACAAGCTGATCGCTTTCCGAAAGCCCGGT
B2: ver1 (dsDNA)
DNA 1: TCAGATATTTCGGTCTCCGAGGAAAGAT
DNA 2: ATCTTTCCTCGGAGACCGAAATATCTGA
B3: vbs (dsDNA)
DNA 1: ACCGACTCTCGGACAGCGAGGCAGACCG
DNA 2: CGGTCTGCCTCGCTGTCCGAGAGTCGGT
B4: vbs inverted repeat (GCG to CCG) (dsDNA)
DNA 1: ACCGACTCTCGGACACCGAGGCAGACCG
DNA 2: CGGTCTGCCTCGGTGTCCGAGAGTCGGT
B5: norA inverted repeat (GCG to CCG) (dsDNA)
DNA 1: ACCGGGCTTTCGGAAACCGATCAGCTTGT
DNA 2: ACAAGCTGATCGGTTTCCGAAAGCCCGGT

What was measured:
AflR 15-57 = molecular target: T1, AflR 15-57; test: EMSA
AflR 28-57 = molecular target: T2, AflR 28-57; test: EMSA
AflR 15-69 = molecular target: T3, AflR 15-69; test: FCS
AflR 26-79 = molecular target: T4, AflR 26-79; test: FCS
AflR 8-98 = molecular target: T5, AflR 8-98; test: FCS
AflR-DBD (15-79) [1] = molecular target: T6, AflR-DBD (15-79); test: FCS
AflR-DBD (15-79) [2] = molecular target: T6, AflR-DBD (15-79); test: EMSA

Row | Binder | binding result (AflR 15-57) | binding result (AflR 28-57) | binding result (AflR-DBD (15-79) [2]) | also measured
1 | B1 | no binding | no binding | – | –
2 | B2 | no binding | no binding | – | Kd (AflR 15-69): 1510 ± 250 nM; Kd (AflR 26-79): 4020 ± 594 nM; Kd (AflR 8-98): 409 ± 137 nM; Kd (AflR-DBD (15-79) [1]): 401 ± 54.5 nM
3 | B3 | no binding | no binding | – | –
4 | B4 | – | – | binds | –
5 | B5 | – | – | binds | –
